One assay deals with Aβ1-42. Nature of the assay: method only given as 'essentially as described above' (KD=Kd/Ka).
Assay [1] deals with T1, β-amyloid peptide (1-42) conjugated to BSA (C-terminal Cys43 coupled to maleimide-activated bovine serum albumin).
T1 construct: Coated on the ELISA plate; BSA carrier not written as a chain; also called Aβ1-42-BSA conjugate; Aβ1-42-Cys-BSA conjugate
Nature of the assay: competition ELISA on coated Aβ1-42-BSA against biotinylated Mu266, second set of three experiments. On the procedure:
(§1) The Aβ₁₋₄₂-BSA conjugate was prepared by dissolving 7.5 mg of Aβ₁₋₄₂-Cys₄₃ (C-terminal cysteine Aβ₁₋₄₂, AnaSpec) in 500 μL of dimethylsulfoxide, and then immediately adding 1,500 μL of distilled water. Two (2) milligrams of maleimide-activated bovine serum albumin (Pierce) was dissolved in 200 μL of distilled water. The two solutions were combined, thoroughly mixed, and allowed to stand at room temperature for two (2) hours. A gel chromatography column was used to separate unreacted peptide from Aβ₁₋₄₂-Cys-BSA conjugate.
(§2) After washing the wells with phosphate buffered saline (PBS) containing 0.1% Tween 20 (Washing Buffer) using an ELISA plate washer, the wells were blocked by adding 300 μL of SuperBlock reagent (Pierce) per well. After 30 minutes of blocking, the wells were washed Washing Buffer and excess liquid was removed.
(§3) As a background control, 100 μl of ELISA Buffer was added. The ELISA plate was incubated at room temperature for 90 min. After washing the wells with Washing Buffer, 100 μl of 1 μg/ml HRP-conjugated streptavidin (Cat #21124, Pierce) was added to each well. […] Absorbance was read at 415 nm. The absorbances were plotted against the log of the competitor concentration, curves were fit to the data points (using Prism) and the IC50 was determined for each antibody using methods well-known in the art.
In general terms: In an ELISA, binding on a coated surface is turned into a signal by an enzyme label.

Assay [2] has as its target T1, β-amyloid peptide (1-42) conjugated to …. Description: competition ELISA on coated Aβ1-42-BSA against biotinylated Mu266, first set of three experiments. On the procedure:
as §1, §2, §3

Assay [3] has as its target T2, aggregate tau fibrils purified from AD brain homogenates (human, UniProt P10636-8 2-441, limits assumed).
T2 construct: Brain-derived aggregates; also called Purified AD Tau Fibrils; purified tau fibrils
Nature of the assay: ELISA on coated tau fibrils purified from AD brain.

Assay [4] deals with T3, human monomeric (native or non-aggregate) tau (human, UniProt P10636 2-758).
T3 construct: also called Monomeric Tau; monomeric tau
Description: SPR (BIACORE 2000), antibody captured on protein A, steady state fit. Here is the method: (§4) Except as noted, all reagents and materials are from BIACORE® AB (Upsala, Sweden). A CM5 chip containing immobilized protein A (generated using standard NHS-EDC amine coupling) on all four flow cells (FC) is used to employ a capture methodology. Antibody samples are prepared at 0.5 μg/mL by dilution into running buffer. Monomeric tau and fibril tau are prepared to concentrations of 2000, 1000, 500, 250, 125, 62.5, 31.25, 15.63, 7.82, 3.91, 1.95, and 0 (blank) nM by dilution into running buffer. Each analysis cycle consists of: (1) capturing antibody samples on separate flow cells (FC2, FC3, and FC4); (2) injection of 250 μL (300 sec) of either monomeric tau or tau fibril aggregate over respective FC at a rate of 50 μL/min; (3) return to buffer flow for 20 mins. to monitor dissociation phase; (4) regeneration of chip surfaces with 25 μL (30 sec) injection of glycine, pH1.5; (5) equilibration of chip surfaces with a 50 μL (60 sec) injection of HBS-EP+.
Data of binding to tau aggregate is processed using standard double-referencing and fit to a 1:1 binding model using Biacore 2000 Evaluation software, version 4.1, to determine the association rate (kₒₙ, M⁻¹s⁻¹ units), dissociation rate (koff, s⁻¹ units), and Rₘₐₓ (RU units). The equilibrium dissociation constant (KD) was calculated from the relationship KD=koff/kₒₙ, and is in molar units. […]
(In general: In SPR one partner is held on a chip, and binding of the other changes the refractive index at the surface.)

In another assay the target is T4, human tau aggregates (human, UniProt P10636 2-758).
T4 construct: also called fibril tau; tau fibril aggregate
Nature of the assay: SPR (BIACORE 2000), antibody captured on protein A, 1:1 fit. On the procedure: as §4
Data of binding to tau aggregate is processed using standard double-referencing and fit to a 1:1 binding model using Biacore 2000 Evaluation software, version 4.1, to determine the association rate (kₒₙ, M⁻¹s⁻¹ units), dissociation rate (koff, s⁻¹ units), and Rₘₐₓ (RU units). The equilibrium dissociation constant (KD) was calculated from the relationship KD=koff/kₒₙ, and is in molar units. […] Therefore, KD for binding to monomeric tau is obtained by using a steady state binding fit model from plotting the concentration of antigen versus the response unit.

Some results are limits rather than exact numbers.

T4 sequence (P10636 other isoform, or with tags, fused parts or gaps limits assumed): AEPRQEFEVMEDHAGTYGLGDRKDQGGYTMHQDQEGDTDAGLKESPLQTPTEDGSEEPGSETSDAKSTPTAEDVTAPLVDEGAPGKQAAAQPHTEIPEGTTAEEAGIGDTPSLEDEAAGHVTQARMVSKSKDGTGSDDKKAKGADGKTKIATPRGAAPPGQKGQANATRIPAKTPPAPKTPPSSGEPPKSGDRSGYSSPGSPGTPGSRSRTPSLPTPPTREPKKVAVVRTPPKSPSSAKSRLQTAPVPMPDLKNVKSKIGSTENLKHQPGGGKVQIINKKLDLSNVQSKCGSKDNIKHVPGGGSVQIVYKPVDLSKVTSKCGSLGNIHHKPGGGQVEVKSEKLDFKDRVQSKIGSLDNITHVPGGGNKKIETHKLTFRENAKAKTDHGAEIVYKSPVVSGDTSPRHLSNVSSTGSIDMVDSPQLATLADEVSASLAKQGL
T2 sequence (P10636 other isoform, or with tags, fused parts or gaps limits assumed): as above
T3 sequence (P10636 other isoform, or with tags, fused parts or gaps limits assumed): as above

B1: humanized 266 antibody (Hu266) (antibody, human IgG1, kappa, V domains shown)
VH: EVQLVESGGGLVQPGGSLRLSCAASGFTFSRYSMSWVRQAPGKGLELVAQINSVGNSTYYPDTVKGRFTISRDNAKNTLYLQMNSLRAEDTAVYYCASGDYWGQGTLVTVSS
VL: DVVMTQSPLSLPVTLGQPASISCRSSQSLIYSDGNAYLHWFLQKPGQSPRLLIYKVSNRFSGVPDRFSGSGSGTDFTLKISRVEAEDVGVYYCSQSTHVPWTFGQGTKVEIKR
notes: Mature antibody expressed from pVk-Hu266 and pVg1-Hu266 in Sp2/0 cells; also called exemplified anti-Aβ antibody
Take B1: in the assay with Aβ1-42, the dissociation constant Kd (usually the equilibrium constant for the complex coming apart) is 4 pM. In addition, the IC50 (commonly the point on the concentration scale where inhibition reaches its midpoint) was found to be 4 µg/mL in assay [1] and 7.5 µg/mL in assay [2].

B2: Exemplified anti-Tau antibody (having both HCs of SEQ ID NO.68 and both LCs of SEQ ID NO.67) (antibody, human IgG4 S228P, kappa, F234A L235A, V domains shown)
VH: EVQLVQSGAEVKKPGESLKISCKGSGYTFSNYWIEWVRQMPGKGLEWMGEILPGSDSIKYEKNFKGQVTISADKSISTAYLQWSSLKASDTAMYYCARRGNYVDDWGQGTLVTVSS
VL: EIVLTQSPGTLSLSPGERATLSCRSSQSLVHSNQNTYLHWYQQKPGQAPRLLIYKVDNRFSGIPDRFSGSGSGTDFTLTISRLEPEDFAVYYCSQSTLVPLTFGGGTKVEIKR
notes: also called Exemplified anti-Tau mAb; exemplified tau monoclonal antibody
Turning to B2, the EC50 (usually the midpoint of the concentration-response curve) in assay [3] came out at 6.8 pM. For the same molecule, in assay [4], the Kd came to 235000 pM. Moreover, in the assay with human tau aggregates, the dissociation constant Kd is less than 220 pM; the koff (as a rule, a measure of how fast the partners let go of each other) was less than 1e-05 s⁻¹; the kon (as a rule, the second-order rate constant of association) was determined as 45900 M⁻¹ s⁻¹.

For the origin of these results see patent US20190161539A1 (published 2019).
